Patent publication US20130195874A1 (ADRENOMED, published 2013)
Read-outs that look alike come from different tables or passages of the source. Each block holds one molecule with its values, some of them ahead of it.

T1: human recombinant adrenomedullin receptor (CRLR+RAMP3) (human)
T1 chain: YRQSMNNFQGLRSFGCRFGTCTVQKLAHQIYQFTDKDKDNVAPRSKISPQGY

B1: mouse adrenomedullin (mADM 1-50) (peptide)
peptide: YRQSMNQGSRSNGCRFGTCTFQKLAHQIYQLTDKDKDGMAPRNKISPQGYNH
B2: human adrenomedullin (hADM 1-52) (peptide)
peptide: T1 chain
B3: NT-H (antibody, V domains shown)
VH: QVQLQQSGAELMKPGASVKISCKATGYTFSRYWIEWVKQRPGHGLEWIGEILPGSGSTNYNEKFKGKATITADTSSNTAYMQLSSLTSEDSAVYYCTEGYEYDGFDYWGQGTTLTVSS
VL: DVLLSQTPLSLPVSLGDQATISCRSSQSIVYSNGNTYLEWYLQKPGQSPKLLIYRVSNRFSGVPDRFSGSGSGTDFTLKISRVEAEDLGVYYCFQGSHIPYTFGGGTKLEIK
notes: also called NT-H antibody; antibody NT-H

How the values were obtained:
[1] = biological target: ADM (human or mouse not stated for this entry); test: cell-based or functional assay
[2] = biological target: T1, human recombinant adrenomedullin …; test: cell-based or functional assay
[3] = biological target: T1, human recombinant adrenomedullin …; test: cell-based or functional assay
[4] = biological target: B2; test: SPR (Biacore 2000), antibody captured via anti-mouse Fc, Adrenomedullin in solution
Experimental: Reversible immobilization of the antibodies was performed using an anti-mouse Fc antibody covalently coupled in high density to a CM5 sensor surface according to the manufacturer's instructions (mouse antibody capture kit; GE Healthcare). (Lorenz et al.,” Functional Antibodies Targeting IsaA of Staphylococcus aureus Augment Host Immune Response and Open New Perspectives for Antibacterial Therapy”; Antimicrob Agents Chemother. 2011 January; 55(1): 165-173.)

[5] = biological target: B2; test: cell-based or functional assay
[6] = biological target: B2; test: cell-based or functional assay

Maximal inhibition of ADM bioactivity (ADM-Bioassay) (%) [1]: 0%
Molecule: Non specific mouse IgG (antibody)

Molecule: B1
EC50 (read off the curve) [2]: ~0.08 nM

Molecule: B2
EC50 (read off the curve) [3]: ~1 nM

Molecule: B3
Kd [4]: 5.9 nM
IC50 (read off the curve) [5]: ~2 µg/mL
stability of hADM in human citrate plasma with NT-H against hADM alone [6]: 2.3 fold
